For seven molecules, Kd, koff and kon results are on record in PMC5319863 (Nature, 2016).

Assay [1] deals with T1, human Izumo1_(22-254), wild type (human, UniProt Q8IYV9-1 22-254). The assay can be described thus: BLI.
A further assay addresses Q130A Izumo1_(22-254) (human, UniProt Q8IYV9-1 22-254, Q130A). The assay can be described thus: BLI.
The target in another assay is R160E Izumo1_(22-254) (human, UniProt Q8IYV9-1 22-254, R160E). The assay can be described thus: BLI.
In another assay the target is E71K Izumo1_(22-254) (human, UniProt Q8IYV9-1 22-254, E71K). The assay can be described thus: BLI.
Chain of E71K Izumo1_(22-254) (Q8IYV9 22-254 E71K): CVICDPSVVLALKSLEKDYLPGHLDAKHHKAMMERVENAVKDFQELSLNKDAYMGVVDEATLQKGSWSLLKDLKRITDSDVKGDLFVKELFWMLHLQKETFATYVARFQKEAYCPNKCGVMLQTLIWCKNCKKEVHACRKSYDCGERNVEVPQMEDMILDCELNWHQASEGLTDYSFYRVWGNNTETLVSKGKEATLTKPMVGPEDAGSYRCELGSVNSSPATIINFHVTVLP
Another assay addresses E71A Izumo1_(22-254) (human, UniProt Q8IYV9-1 22-254, E71A). The assay can be described thus: BLI.
For another assay, the target named is H157A Izumo1_(22-254) (human, UniProt Q8IYV9-1 22-254, H157A). The assay can be described thus: BLI.
Chain of H157A Izumo1_(22-254) (Q8IYV9 22-254 H157A): as the sequence (Q8IYV9 22-254 E71K) above, with K50E, H136A counted along it
The target of the next assay is R160A Izumo1_(22-254) (human, UniProt Q8IYV9-1 22-254, R160A). The assay can be described thus: BLI.
Chain of R160A Izumo1_(22-254) (Q8IYV9 22-254 R160A): as the sequence (Q8IYV9 22-254 E71K) above, with K50E, R139A counted along it
The target of the next assay is D72A Izumo1_(22-254) (human, UniProt Q8IYV9-1 22-254, D72A). The assay can be described thus: BLI.
Chain of D72A Izumo1_(22-254) (Q8IYV9 22-254 D72A): as the sequence (Q8IYV9 22-254 E71K) above, with K50E, D51A counted along it
The target in assay [2] is T1, human Izumo1_(22-254), wild type. The assay can be described thus: SPR.

Chain of Q130A Izumo1_(22-254) (Q8IYV9 22-254 Q130A): as the sequence (Q8IYV9 22-254 E71K) above, with K50E, Q109A counted along it
Chain of R160E Izumo1_(22-254) (Q8IYV9 22-254 R160E): as the sequence (Q8IYV9 22-254 E71K) above, with K50E, R139E counted along it
T1 sequence (Q8IYV9 22-254): as the sequence (Q8IYV9 22-254 E71K) above, with K50E counted along it
Chain of E71A Izumo1_(22-254) (Q8IYV9 22-254 E71A): as the sequence (Q8IYV9 22-254 E71K) above, with K50A counted along it

B1: E45A Juno_(20-228) (domain or fragment, human, UniProt A6ND01-1 20-228, looked up)
chain: GDELLNICMNAKHHKRVPSPEDKLYAECIPWKDNACCTLTTSWEAHLDVSPLYNFSLFHCGLLMPGCRKHFIQAICFYECSPNLGPWIQPVGSLGWEVAPSGQGERVVNVPLCQEDCEEWWEDCRMSYTCKSNWRGGWDWSQGKNRCPKGAQCLPFSHYFPTPADLCEKTWSNSFKASPERRNSGRCLQKWFEPAQGNPNVAVARLFAS
modifications: biotinylated with the EZ link sulfo-NHS-LC-biotinylation kit (BLI)
For the molecule B1, in assay [1], the Kd amounted to 681 nM, the off-rate (koff) came out at 0.0247 s⁻¹ and the on-rate constant (kon) is 37000 M⁻¹ s⁻¹.

B2: W62A Juno_(20-228) (domain or fragment, human, UniProt A6ND01-1 20-228, looked up)
chain: GDELLNICMNAKHHKRVPSPEDKLYEECIPWKDNACCTLTTSAEAHLDVSPLYNFSLFHCGLLMPGCRKHFIQAICFYECSPNLGPWIQPVGSLGWEVAPSGQGERVVNVPLCQEDCEEWWEDCRMSYTCKSNWRGGWDWSQGKNRCPKGAQCLPFSHYFPTPADLCEKTWSNSFKASPERRNSGRCLQKWFEPAQGNPNVAVARLFAS
modifications: biotinylated with the EZ link sulfo-NHS-LC-biotinylation kit (BLI)
On to B2, for which, in assay [1], the equilibrium dissociation constant (Kd) is 361 nM, the koff is 0.0412 s⁻¹ and the kon came out at 114000 M⁻¹ s⁻¹.

B3: E45K Juno_(20-228) (domain or fragment, human, UniProt A6ND01-1 20-228, looked up)
chain: GDELLNICMNAKHHKRVPSPEDKLYKECIPWKDNACCTLTTSWEAHLDVSPLYNFSLFHCGLLMPGCRKHFIQAICFYECSPNLGPWIQPVGSLGWEVAPSGQGERVVNVPLCQEDCEEWWEDCRMSYTCKSNWRGGWDWSQGKNRCPKGAQCLPFSHYFPTPADLCEKTWSNSFKASPERRNSGRCLQKWFEPAQGNPNVAVARLFAS
modifications: biotinylated with the EZ link sulfo-NHS-LC-biotinylation kit (in the BLI assay only)
Regarding B3, in [1], the dissociation constant Kd was 2800 nM, the koff was 0.0624 s⁻¹ and the kon was determined as 23000 M⁻¹ s⁻¹.

B4: L81A Juno_(20-228) (domain or fragment, human, UniProt A6ND01-1 20-228, looked up)
chain: GDELLNICMNAKHHKRVPSPEDKLYEECIPWKDNACCTLTTSWEAHLDVSPLYNFSLFHCGALMPGCRKHFIQAICFYECSPNLGPWIQPVGSLGWEVAPSGQGERVVNVPLCQEDCEEWWEDCRMSYTCKSNWRGGWDWSQGKNRCPKGAQCLPFSHYFPTPADLCEKTWSNSFKASPERRNSGRCLQKWFEPAQGNPNVAVARLFAS
modifications: biotinylated with the EZ link sulfo-NHS-LC-biotinylation kit (BLI)
In assay [1], B4 returned a Kd of 9100 nM, a koff of 0.349 s⁻¹ and a kon of 40000 M⁻¹ s⁻¹.

B5: K163A Juno_(20-228) (domain or fragment, human, UniProt A6ND01-1 20-228, looked up)
chain: GDELLNICMNAKHHKRVPSPEDKLYEECIPWKDNACCTLTTSWEAHLDVSPLYNFSLFHCGLLMPGCRKHFIQAICFYECSPNLGPWIQPVGSLGWEVAPSGQGERVVNVPLCQEDCEEWWEDCRMSYTCKSNWRGGWDWSQGANRCPKGAQCLPFSHYFPTPADLCEKTWSNSFKASPERRNSGRCLQKWFEPAQGNPNVAVARLFAS
modifications: biotinylated with the EZ link sulfo-NHS-LC-biotinylation kit (BLI)
In the case of B5, in assay [1], the affinity, expressed as Kd, was 97 nM; the koff came out at 0.0133 s⁻¹; the kon was determined as 138000 M⁻¹ s⁻¹.

B6: human Juno_(20-228), wild type (domain or fragment, UniProt A6ND01-1 20-228, looked up)
chain: GDELLNICMNAKHHKRVPSPEDKLYEECIPWKDNACCTLTTSWEAHLDVSPLYNFSLFHCGLLMPGCRKHFIQAICFYECSPNLGPWIQPVGSLGWEVAPSGQGERVVNVPLCQEDCEEWWEDCRMSYTCKSNWRGGWDWSQGKNRCPKGAQCLPFSHYFPTPADLCEKTWSNSFKASPERRNSGRCLQKWFEPAQGNPNVAVARLFAS
modifications: biotinylated with the EZ link sulfo-NHS-LC-biotinylation kit (in the BLI assay only)
B6: the Kd in assay [1] amounted to 59 nM; with Q130A Izumo1_(22-254), 56 nM; with R160E Izumo1_(22-254), 2200 nM; with E71K Izumo1_(22-254), 119 nM; in the assay with E71A Izumo1_(22-254), 96 nM; with H157A Izumo1_(22-254), 1800 nM. Further, the figures for the dissociation constant Kd (with R160A Izumo1_(22-254); with D72A Izumo1_(22-254); in [2]) were 730 nM, 71 nM and 48 nM, respectively. Further, the koff worked out at 0.0067 s⁻¹ in assay [1]; 0.0068 s⁻¹ in the assay with Q130A Izumo1_(22-254); 0.0512 s⁻¹ in the assay with R160E Izumo1_(22-254); 0.0195 s⁻¹ with E71K Izumo1_(22-254); 0.0137 s⁻¹ with E71A Izumo1_(22-254); 0.079 s⁻¹ with H157A Izumo1_(22-254). In addition, the values for the koff (with R160A Izumo1_(22-254); with D72A Izumo1_(22-254); in assay [2]) were 0.0563 s⁻¹, 0.0126 s⁻¹ and 0.0194 s⁻¹, respectively. Besides, the kon stood at 115000 M⁻¹ s⁻¹ in assay [1]; 127000 M⁻¹ s⁻¹ in the assay with Q130A Izumo1_(22-254); 32000 M⁻¹ s⁻¹ with R160E Izumo1_(22-254); 165000 M⁻¹ s⁻¹ with E71K Izumo1_(22-254); 143000 M⁻¹ s⁻¹ in the assay with E71A Izumo1_(22-254); 51000 M⁻¹ s⁻¹ with H157A Izumo1_(22-254). Further, the kon with R160A Izumo1_(22-254) turned out to be 78000 M⁻¹ s⁻¹; with D72A Izumo1_(22-254) it was 178000 M⁻¹ s⁻¹; in assay [2], 420000 M⁻¹ s⁻¹.

B7: K163E Juno_(20-228) (domain or fragment, human, UniProt A6ND01-1 20-228, looked up)
chain: GDELLNICMNAKHHKRVPSPEDKLYEECIPWKDNACCTLTTSWEAHLDVSPLYNFSLFHCGLLMPGCRKHFIQAICFYECSPNLGPWIQPVGSLGWEVAPSGQGERVVNVPLCQEDCEEWWEDCRMSYTCKSNWRGGWDWSQGENRCPKGAQCLPFSHYFPTPADLCEKTWSNSFKASPERRNSGRCLQKWFEPAQGNPNVAVARLFAS
modifications: biotinylated with the EZ link sulfo-NHS-LC-biotinylation kit (in the BLI assay only)
In assay [1], B7 returned a Kd of 134 nM, a dissociation rate constant (koff) of 0.0242 s⁻¹ and a kon of 181000 M⁻¹ s⁻¹.
